Experimental data from patent US20240360194A1, “New Peptides as Potent and Selective GIP Receptor Agonists” (Sanofi, priority 2021, published 2024).
Numbered stars: 1 amine (or outer) side, 2 acyl side, 3 side chain; on linkers, the order of the positions; unused ones are H or OH. Square brackets hold non-standard residues; d marks the D form. Side chains are listed from the residue outwards. Ends that are not written are not given here. * marks the point of attachment. C18 diacid = O=C(O)CCCCCCCCCCCCCCCCC(=O)*; γGlu = O=C(O)[C@H](CCC(=O)[*:2])N[*:1]; AEEA = NCCOCCOCC(=O)O; Aib = CC(C)(N)C(=O)O

B1: SEQ ID NO: 21 (peptide)
peptide: Y[Aib]EGTFISDLSI[Aib]K([AEEA-AEEA-γGlu-C18 diacid])ERIHQ[Aib]EFIEWLLAQGPSSGAPPPS-NH2
modifications: N-terminus assumed
SMILES: CC[C@H](C)[C@H](NC(=O)[C@H](CCCNC(=N)N)NC(=O)[C@H](CCC(=O)O)NC(=O)[C@H](CCCCNC(=O)COCCOCCNC(=O)COCCOCCNC(=O)CC[C@H](NC(=O)CCCCCCCCCCCCCCCCC(=O)O)C(=O)O)NC(=O)C(C)(C)NC(=O)[C@@H](NC(=O)[C@H](CO)NC(=O)[C@H](CC(C)C)NC(=O)[C@H](CC(=O)O)NC(=O)[C@H](CO)NC(=O)[C@@H](NC(=O)[C@H](Cc1ccccc1)NC(=O)[C@@H](NC(=O)CNC(=O)[C@H](CCC(=O)O)NC(=O)C(C)(C)NC(=O)[C@@H](N)Cc1ccc(O)cc1)[C@@H](C)O)[C@@H](C)CC)[C@@H](C)CC)C(=O)N[C@@H](Cc1c[nH]cn1)C(=O)N[C@@H](CCC(N)=O)C(=O)NC(C)(C)C(=O)N[C@@H](CCC(=O)O)C(=O)N[C@@H](Cc1ccccc1)C(=O)N[C@H](C(=O)N[C@@H](CCC(=O)O)C(=O)N[C@@H](Cc1c[nH]c2ccccc12)C(=O)N[C@@H](CC(C)C)C(=O)N[C@@H](CC(C)C)C(=O)N[C@@H](C)C(=O)N[C@@H](CCC(N)=O)C(=O)NCC(=O)N1CCC[C@H]1C(=O)N[C@@H](CO)C(=O)N[C@@H](CO)C(=O)NCC(=O)N[C@@H](C)C(=O)N1CCC[C@H]1C(=O)N1CCC[C@H]1C(=O)N1CCC[C@H]1C(=O)N[C@@H](CO)C(N)=O)[C@@H](C)CC
notes: Synthetic peptide, 39 residues
B2: SEQ ID NO: 29 (peptide)
peptide: Y[Aib]EGTFISDLSI[Aib]K([AEEA-AEEA-γGlu-C18 diacid])DRIHQ[Aib]EFIEWLLAQEPSSGAPPPS-NH2
modifications: N-terminus assumed
SMILES: CC[C@H](C)[C@H](NC(=O)[C@H](CCCNC(=N)N)NC(=O)[C@H](CC(=O)O)NC(=O)[C@H](CCCCNC(=O)COCCOCCNC(=O)COCCOCCNC(=O)CC[C@H](NC(=O)CCCCCCCCCCCCCCCCC(=O)O)C(=O)O)NC(=O)C(C)(C)NC(=O)[C@@H](NC(=O)[C@H](CO)NC(=O)[C@H](CC(C)C)NC(=O)[C@H](CC(=O)O)NC(=O)[C@H](CO)NC(=O)[C@@H](NC(=O)[C@H](Cc1ccccc1)NC(=O)[C@@H](NC(=O)CNC(=O)[C@H](CCC(=O)O)NC(=O)C(C)(C)NC(=O)[C@@H](N)Cc1ccc(O)cc1)[C@@H](C)O)[C@@H](C)CC)[C@@H](C)CC)C(=O)N[C@@H](Cc1c[nH]cn1)C(=O)N[C@@H](CCC(N)=O)C(=O)NC(C)(C)C(=O)N[C@@H](CCC(=O)O)C(=O)N[C@@H](Cc1ccccc1)C(=O)N[C@H](C(=O)N[C@@H](CCC(=O)O)C(=O)N[C@@H](Cc1c[nH]c2ccccc12)C(=O)N[C@@H](CC(C)C)C(=O)N[C@@H](CC(C)C)C(=O)N[C@@H](C)C(=O)N[C@@H](CCC(N)=O)C(=O)N[C@@H](CCC(=O)O)C(=O)N1CCC[C@H]1C(=O)N[C@@H](CO)C(=O)N[C@@H](CO)C(=O)NCC(=O)N[C@@H](C)C(=O)N1CCC[C@H]1C(=O)N1CCC[C@H]1C(=O)N1CCC[C@H]1C(=O)N[C@@H](CO)C(N)=O)[C@@H](C)CC
notes: Synthetic peptide, 39 residues (Glu at 30)

Columns and labels:
human GIP receptor [1] = molecular target: T1, human GIP receptor (human, UniProt P48546 22-466); experiment: cell-based or functional assay
T1 sequence (looked up): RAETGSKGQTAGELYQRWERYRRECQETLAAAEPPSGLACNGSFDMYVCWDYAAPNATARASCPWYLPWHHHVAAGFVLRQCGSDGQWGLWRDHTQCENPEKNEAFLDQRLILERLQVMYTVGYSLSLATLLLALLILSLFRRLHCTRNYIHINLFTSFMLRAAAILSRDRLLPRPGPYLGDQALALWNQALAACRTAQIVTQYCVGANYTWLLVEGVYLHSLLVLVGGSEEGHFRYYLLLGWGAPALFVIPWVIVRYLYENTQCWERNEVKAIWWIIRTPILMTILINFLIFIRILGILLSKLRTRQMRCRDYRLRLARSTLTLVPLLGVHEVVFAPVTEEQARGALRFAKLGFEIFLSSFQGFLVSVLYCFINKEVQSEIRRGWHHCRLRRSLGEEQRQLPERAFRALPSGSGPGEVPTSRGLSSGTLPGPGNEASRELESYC

human GLP-1 receptor [2] = molecular target: T2, human GLP-1 receptor (human, UniProt P43220 24-463); experiment: cell-based or functional assay
human GIP receptor [3] = molecular target: T1, human GIP receptor; experiment: cell-based or functional assay; remark: listed apart in the source
human GLP-1 receptor [4] = molecular target: T2, human GLP-1 receptor; experiment: displacement of [125I]GLP-1 from HEK-293 membranes expressing hGLP-1R (SPA beads)

Binder	hGIPR EC50 (cAMP, human adipocytes) (human GIP receptor [1])	hGIPR Emax (cAMP, human adipocytes) (human GIP receptor [1])	EC50 hGLP-1R 0.1% BSA (cAMP, HEK-293) (human GLP-1 receptor [2])	EC50 hGIPR 0% HSA (cAMP, HEK-293) (human GIP receptor [3])	EC50 hGIPR 0.1% BSA (cAMP, HEK-293) (human GIP receptor [3])	IC50 (human GLP-1 receptor [4])
B1	2.8 nM	120%	> 10 nM	0.00019 nM	0.00836 nM	146 nM
B2	5.3 nM	119%	> 10 nM	0.00015 nM	0.0152 nM	287 nM
